Where “and” joins values, the source holds several entries; their conditions need not be identical. Equal entries are not always repeated.

Holding throughout (test): BLI
What all share (conditions): both partners purified

Assay [1] addresses T1, spike hepta-peptide Thr1273 → Gln (SARS-CoV-2, Gln^1273 (stands in the printed letters)).
T1 peptide: GVKLHYQ

Assay [2] concerns the target T2, spike hepta-peptide Thr1273 → Arg (SARS-CoV-2, Arg^1273 (stands in the printed letters)).
T2 peptide: GVKLHYR

The target of assay [3] is T3, spike hepta-peptide Thr1273 → Val (SARS-CoV-2, Thr^1273 → Val (stands in the printed letters)).
T3 peptide: GVKLHYV

Assay [4] has as its target T4, spike hepta-peptide Thr1273 → Glu (SARS-CoV-2, Thr^1273 → Glu (stands in the printed letters)).
T4 peptide: GVKLHYE

The target in assay [5] is T5, spike hepta-peptide Tyr1272 → Ala (1267Gly-Val-Lys-Leu-His-Ala-Thr1273) (SARS-CoV-2, Tyr^1272 → Ala (stands in the printed letters)).
T5 peptide: GVKLHAT

In assay [6] the target is T6, spike hepta-peptide Thr1273 → Ala (1267Gly-Val-Lys-Leu-His-Tyr-Ala1273) (SARS-CoV-2, Thr^1273 → Ala (stands in the printed letters)).
T6 peptide: GVKLHYA

B1: αCOPI-WD40 domain (residues 1-327) from Schizosaccharomyces pombe (domain or fragment)
chain: MEMLTKFESRSSRAKGVAFHPTQPWILTSLHNGRIQLWDYRMGTLLDRFDGHDGPVRGIAFHPTQPLFVSGGDDYKVNVWNYKSRKLLFSLCGHMDYVRVCTFHHEYPWILSCSDDQTIRIWNWQSRNCIAILTGHSHYVMCAAFHPSEDLIVSASLDQTVRVWDISGLRMKNAAPVSMSKEDQKAQAHNSKSNDKKGSTDAIVKFVLEGHDRGVNWCAFHPTLPLILSAGDDRLVKLWRMTASKAWEVDTCRGHFNNVSCCLFHPHQELILSASEDKTIRVWDLNRRTAVQTFRRDNDRFWFITVHPKLNLFAAAHDSGVMVFKLE
For the molecule B1, the Kd is 780 nM and 1150 nM in assay [1]; 1730 nM and 1290 nM in assay [2]; 3200 nM and 2060 nM in assay [3]; 310 nM and 380 nM in assay [4]; 3770 nM and 2320 nM in assay [5]; 1130 nM and 1140 nM in assay [6]. Moreover, the koff in assay [1] stood at 0.066 s⁻¹; in assay [2], 0.177 s⁻¹; in assay [3], 0.212 s⁻¹; in assay [4], 0.024 s⁻¹; in assay [5], 0.28 s⁻¹; in assay [6], 0.076 s⁻¹. In addition, the kon in assay [1] was 60000 M⁻¹ s⁻¹; in assay [2], 57600 M⁻¹ s⁻¹; in assay [3], 103000 M⁻¹ s⁻¹; in assay [4] it was 59000 M⁻¹ s⁻¹; in assay [5] it was 121000 M⁻¹ s⁻¹; in assay [6], 66700 M⁻¹ s⁻¹.

The values are drawn from publication PMC8825798 (Communications Biology, 2022).
